From publication doi:10.1101/2021.01.21.427566, “Gradual opening of Smc arms in prokaryotic condensin” (bioRxiv, 2021)

Target: the molecule itself
Test: EPR-DEER; MTSL-labelled single-cysteine Smc, 5 µM, mixed with ScpA and ScpB (similar trends without ScpAB); apo, or with 1 mM ATP and 10 µM dsDNA40; 50 mM Tris-HCl pH 7.5, 50 mM NaCl, 2 mM MgCl2, 40 % ethylene glycol-d6, 90 % deuterium oxide; shock-frozen, DEER traces at 50 K, Q band; spin-spin distances between the two Smc of a dimer

B1: Smc^3S(D193C) (natural protein, B. subtilis, UniProt P51834 1-1186, looked up)
chain: MFLKRLDVIGFKSFAERISVDFVKGVTAVVGPNGSGKSNITDAIRWVLGEQSARSLRGGKMEDIIFAGSDSRKRLNLAEVTLTLDNDDHFLPIDFHEVSVTRRVYRSGESEFLINNQPSRLKDIIDLFMDSGLGKEAFSIISQGKVEEILSSKAEDRRSIFEEAAGVLKYKTRKKKAENKLFETQDNLNRVECILHELEGQVEPLKIQASIAKDYLEKKKELEHVEIALTAYDIEELHGKWSTLKEKVQMAKEEELAESSAISAKEAKIEDTRDKIQALDESVDELQQVLLVTSEELEKLEGRKEVLKERKKNAVQNQEQLEEAIVQFQQKETVLKEELSKQEAVFETLQAEVKQLRAQVKEKQQALSLHNENVEEKIEQLKSDYFELLNSQASIRNELQLLDDQMSQSAVTLQRLADNNEKHLQERHDISARKAASETEFARIEQEIHSQVGAYRDMQTKYEQKKRQYEKNESALYQAYQYVQQARSKKDMLETMQGDFSGFYQGVKEVLKAKERLGGIRGAVLELISTEQKYETAIEIALGASAQHVVTDDEQSARKAIQYLKQNSFGRATFLPLSVIRDRQLQSRDAETAARHSSFLGVASELVTFDPAYRSVIQNLLGTVLITEDLKGANELAKLLGHRYRIVTLEGDVVNPGGSMTGGAVKKKNNSLLGRSRELEDVTKRLAEMEEKTALLEQEVKTLKHSIQDMEKKLADLRETGEGLRLKQQDVKGQLYELQVAEKNINTHLELYDQEKSALSESDEERKVRKRKLEEELSAVSEKMKQLEEDIDRLTKQKQTQSSTKESLSNELTELKIAAAKKEQASKGEEDNLARLKKELTETELALKEAKEDLSFLTSEMSSSTSGEEKLEEAAKHKLNDKTKTIELIALRRDQRIKLQHGLDTYERELKEMKRLYKQKTTLLKDEEVKLGRMEVELDNLLQYLREEYSLSFEGAKEKYQLETDPEEARKRVKLIKLAIEELGTVNLGSIDEFERVNERYKFLSEQKEDLTEAKNTLFQVIEEMDEEMTKRFNDTFVQIRSHFDQVFRSLFGGGRAELRLTDPNDLLHSGVEIIAQPPGKKLQNLNLLSGGERALTAIALLFSILKVRPVPFCVLDEVEAALDEANVFRFAQYLKKYSSDTQFIVITHRKGTMEEADVLYGVTMQESGVSKVISVKLEETKEFVQ
modifications: MTSL spin label on the engineered cysteine 193
notes: Smc, Bacillus subtilis (Bsu), cysteine-lite Smc^3S background with D193C, without E1118Q; also called wild-type Smc (without E1118Q) with D193C; wt Smc; source: E. coli BL21-Gold (DE3), purified (HiTrap Blue, Heparin, gel filtration)
binding result: binds
